Laboratory results: article doi:10.1101/2022.05.18.492403

Biological target: recombinant C-terminal StrepII-tagged SbtB from Synechocystis sp. PCC 6803 (ScSbtB), wildtype (Synechocystis sp. PCC 6803), P73954
Experiment: crystal structure
Conditions: remark: other sources report otherwise

stoichiometry N: 3
B1: recombinant C-terminal StrepII-tagged SbtB from Synechocystis sp. PCC 6803 (ScSbtB), wildtype, P73954 1-110 (natural protein)
chain: MAKPANKLVIVTEKILLKKIAKIIDESGAKGYTVMNTGGKGSRNVRSSGQPNTSDIEANIKFEILTETREMAEEIADRVAVKYFNDYAGIIYICSAEVLYGHTFCGPEGC
